Measured values reported in patent publication US20110166331A1 (Amgen, published 2011).

Key:
[1] = biological target: T1, cynomolgus IL-17RA on the cell surface (cynomolgus); test: FACS competition, non-clonal hybridoma supernatant vs biotin-huIL-17A (500 ng/ml) on cyno IL-17RA+ CHO cells; lower = more inhibition
T1 construct: whole, on cells; also called CHO-cynoIL-17RA; cyno IL-17RA+ CHO cells
Experimental: The anti-IL-17RA antibodies were characterized. Non-clonal hybridoma supernatants were prepared in volumes of 1-2 mls (the Ig concentrations were not determined for these supernatants).

[2] = biological target: T1, cynomolgus IL-17RA on the cell surface; test: FACS competition, non-clonal hybridoma supernatant vs biotin-huIL-17A (500 ng/ml) on cyno IL-17RA+ cells; lower = more inhibition
[3] = biological target: T1, cynomolgus IL-17RA on the cell surface; test: FACS competition, non-clonal hybridoma supernatant vs biotin-huIL-17A (500 ng/ml) on cynomolgus IL-17RA+ CHO cells; lower = more inhibition
Experimental: Non-clonal hybridoma supernatants were prepared in volumes of 1-2 mls (the Ig concentrations were not determined for these supernatants). […] Anti-IL-17RA non-clonal hybridomas were selected for sub-cloning based on their performance in the CHO-IL-17RA FACS assay and HFF bioassay.

[4] = biological target: T1, cynomolgus IL-17RA on the cell surface; test: cell-based or functional assay
[5] = biological target: T2, D152R IL-17RA mutant (human, UniProt Q96F46 33-320); test: Bio-Plex titration on His-captured D152R IL-17RA mutant; signal as percent of maximum wild-type MFI
T2 construct: Arginine scan mutant of huIL-17RA-FLAG-polyHis; also called huIL-17RA-FLAG-polyHis D152R
T2 sequence (Q96F46 other isoform, or with tags, fused parts or gaps D152R D152R limits assumed): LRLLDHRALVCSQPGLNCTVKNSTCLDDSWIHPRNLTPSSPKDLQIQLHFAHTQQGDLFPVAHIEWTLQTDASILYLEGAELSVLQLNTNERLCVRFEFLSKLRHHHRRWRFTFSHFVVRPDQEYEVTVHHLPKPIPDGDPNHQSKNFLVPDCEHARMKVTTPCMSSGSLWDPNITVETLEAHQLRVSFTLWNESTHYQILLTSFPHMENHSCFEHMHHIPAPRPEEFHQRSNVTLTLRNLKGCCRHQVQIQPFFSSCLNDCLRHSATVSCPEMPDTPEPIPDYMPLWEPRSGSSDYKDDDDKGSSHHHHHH
Experimental: Twelve bead codes of pentaHis-coated beads (Qiagen, Valencia, Calif.; see www1.qiagen.com) were used to capture histidine-tagged protein.
To prepare the beads, 100 ul of wild-type IL-17RA and IL-17RA arginine mutant supernatants from transient expression culture were bound to penta-His-coated beads overnight at 4° C. or 2 hours at room temperature with vigorous shaking. The beads were washed as per the manufacturer's protocol and the 12 bead set was pooled and aliquoted into 2 or 3 columns of a 96-well filter plate (Millipore, Bellerica, Mass., product #MSBVN1250) for duplicate or triplicate assay points, respectively. 100 ul anti-IL-17RA antibodies in 4-fold dilutions were added to the wells, incubated for 1 hour at room temperature, and washed. […] Beads were resuspended in 1% BSA, shaken for 3 minutes, and read on the Bio-Plex workstation. Antibody binding to IL-17RA arginine mutant protein was compared to antibody binding to the human IL-17RA wild-type from the same pool. A titration of antibody over approximately a 5 log scale was performed. Median Fluorescence Intensity (MFI) of IL-17RA arginine mutant proteins was graphed as a percent of maximum wild-type human IL-17RA signal.

| Binder | MFI [2] | MFI [3] | other results |
| --- | --- | --- | --- |
| AMH21/AML21 (antibody, IgG2, V domains shown, also called AM-21) VH: EVQLVESGGGSVQPGGSLRLSCAASGFTFSSYSMNWVRQAPGKGLEWVSIISSRSSIIHYADSVKGRFTISRDNAKNSLYLQMNSLRDEDTAVYYCARPKVGGGMDVWGQGTTVTVSS VL: DIQMTQSPSSLSASVGDRVTITCRASQGISNYLAWYQQKPGKFPELLIYAASTLQSGVPSRFSGSGSGTDFTLTISSLQPEDVATYYCQKYNRAPFTFGPGTKVDIK | – | – | MFI [1]: 6 |
| AMH11/AML11 (antibody, IgG2, V domains shown, also called AM-11) VH: QVQLVESGGGVVQPGRSLRLSCATSGITFSSYGMHWVRQAPGKGLEWVAVIWYDGSNKYYADSVKGRFTISRDNSKNTLYLQMNSLRAEDTAVYYCARDTKDYWGQGTLVTVSS VL: EIVMTQSPATLSVSPGERATLSCRASQSVSSNLAWYQQKPGQAPRLLIYGASTRAAGIPARFSGGGSGTAFTLTISNLQSEDFAVYYCQHYINWPKWTFGQGTKVDIK | 9 | – | – |
| AMH22/AML22 (antibody, IgG2, V domains shown, also called AM-22) VH: QVQLVQSGAEVKKPGASVKVSCKASGYTFTRYGISWVRQAPGQGLEWMGWISAYSGNTNYAQKLQGRVTMTTDTSTSTAYMELRSLRSDDTAVYYCARRQLYFDYWGQGTLVTVSS VL: EIVMTQSPATLSVSPGERVTLSCRASQSVSSNLAWFQQKPGQAPRPLIYDASTRAAGIPARFSGSGSGTDFTLTISSLQSEDFAVYYCQQYDNWPLTFGGGTKVEIK | 18 | – | – |
| AMH15/AML15 (antibody, IgG2, V domains shown, IgG2 XenoMouse; also called AM-15) VH: QVQLVESGGGVVQPGRSLRLSCAASGFTFSSYGMQWVRQAPGKGLEWVAVIWYDGNKKYYADSVKGRFTISRDNSKNTLYLQMNSLRAEDTAVYYCARGRVRDYYYGMDVWGQGTTVTVSS VL: EIVMTQSPATLSVSPGERVTLSCRASQSVSSNLAWFQQKPGQAPRPLIYDASTRAAGIPARFSGSGSGTDFTLTISSLQSEDFAVYYCQQYDNWPLTFGGGTKVEIK | – | – | MFI [1]: 6 |
| AMH17/AML17 (antibody, V domains shown, also called AM-17) VH: QVQLVQSGAEVKKPGAAVKVSCKATGYTLTSYGISWVRQAPGQGLEWMGWISAYSGNTKYAQKLQGRVTMTTDTSTSTAYMELRSLRSDDTAVYYCARKQLVFDYWGQGTLVTVSS VL: not shown | – | 8 | – |
| AMH14/AML14 (antibody, IgG2, V domains shown, Fully human mAb from IgG2 XenoMouse mice; also called AM-14) VH: QVQLVQSGAEVKKPGASVKVSCKASGYTFTRYGISWVRQAPGQGLEWMGWISTYSGNTNYAQKLQGRVTMTTDTSTSTAYMELRSLRSDDTAVYYCARRQLYFDYWGQGTLVTVSS VL: EIVMTQSPATLSVSPGERATLSCRASQSVSSNLAWFQQKPGQAPRPLIYDASTRATGVPARFSGSGSGTDFTLTISSLQSEDFAVYYCQQYDNWPLTFGGGTKVEIK | – | – | IC50, cynomolgous IL-17A-induced IL-6 production from JTC-12 cells [4]: ~1.2 nM; MFI [1]: 10 |
| AMH18/AML18 (antibody, IgG2, V domains shown, also called AM-18) VH: QVQLVQSGAEVKKPGASVKVSCKASGYSFTDYYMHWVRQAPGQGLEWMGWMHPNSGGTDLAQRFQGRVTMTRDTSISTAYMELSRLRSDDTAVYYCARGGYCSTLSCSFYWYFDLWGRGTLVTVSS VL: not shown | – | – | EC50 (read off the curve) [5]: ~0.08 nM |
| AMH5/AML5 (antibody, IgG2, V domains shown, IgG2 XenoMouse; also called AM-5) VH: QVQLQESGPGLVKPSETLPLTCTVSGGSIRSYYWSWIRQPAGKGLEWIGRIYRSGNTIYNPSLKSRVTMSIDTSKNQFSLTLSSVTAADTAVYYCARENYSESSGLYYYYGMDVWGQGTTVTVSS VL: DIQMTQSPSSLSASVGDRVTITCRASQGIRNDLGWYQQKPGKAPKRLIYAASSFQSGVPSRFSGSGSGTGFTLTISSLQPEDFATYYCLQHNSYPPTFGQGTKVEIK | 9 | – | – |
| AMH1/AML1 (antibody, V domains shown, also called AM-1) VH: QVQLQESGPGLVKPSETLSLTCTVSGGSISNYYWNWIRQSPGKGLEWIGDIYYSGSTNYNPSLKSRVTISVDTSKNQFSLKLSSVTTADTAVYYCARDGELANYYGSGSYQFYYYYGMDVWGQGTTVTVSS VL: DILMTQSPSSLSASVGDRVTITCRASQGIRNDLGWYQQKPGKAPKRLIYAASSLQSGVPSRFSGSGSGTEFTLTISSLQPEDFATYYCLQHNSNPFTFGPGTKVDIK | 11 | – | – |

The next lines start with results.

| MFI [2] | MFI [3] | Binder | other results |
| --- | --- | --- | --- |
| – | 6 | AMH12/AML12 (antibody, IgG2, V domains shown, also called AM-12) VH: QVQLVQSGAEVKKPGASVKVSCKASGYTLTSYGISWVRQAPGQGLEWMGWISTYKGNTNYAQKLQGRVTMTTDTSTSTAYMELRSLRSDDTAVYYCARKQLVFDYWGQGTLVTVSS VL: EIVMTQSPATLSVSPGERATLSCRASQSISSSLAWYQQKPGQAPRLLIYGASTRATGIPARFSGSGSGTEFTLTISSLQSENFAVYYCQQYDNWPLTFGGGTKVEIK | – |
| – | 6 | AMH16/AML16 (antibody, IgG2, V domains shown, also called AM-16) VH: QVQLVQSGAEVKKPGASVKVSCKASGYTFTSYGISWVRQAPGQGLEWMGWISAYNGNTKYAQKLQGRVTMTTDTSTSTVYMELRSLRSDDTAVYYCARKQLVFDYWGQGTLVTVSS VL: EIVMTQSPATLSVSPGERATLSCRASQSISTSLAWYQQKPGQAPRLLIYGTSTRATGIPARFSGSGSGTEFTLTISSLQSEDFAVYFCQQYDIWPLTFGGGTKVEIK | – |
| – | 6 | AMH13/AML13 (antibody, IgG2, V domains shown, also called AM-13) VH: QVQLVESGGGVVQPGRSLRLSCAASGFTFSSYGMQWVRQAPGKGLEWVAVIWYDGNKKYYADSVKGRFTISRDNSKNTLYLQMNSLRAEDTAVYYCARGRVRDYYYGMDVWGQGTTVTVSS VL: DIVMTQTPLSLSVTPGQPASIACKSSQSLLHSDGKTYLYWYLQKPGQPPQLLIYEVSTRFSGVPDRFSGSGSGTDFTLKISRVEAEDVGVFYCMQSIQLPLTFGGGTKVEIK | – |
